According to the DeepSol protein solubility set:

Assay: soluble on expression in E. coli; label from the status in PepcDB or PDB records

| Sequence | soluble on expression in E. coli |
| --- | --- |
| MLDSVTHSTFLPNASFCDPLMPWTDLFSNEDYYPAFEHQTACDSYWTSVHPEYWTKRHVWEWLQFCCDQYKLDANCISFCHFNISGLQLCSMTQEEFIEAAGICGEYLYFILQNIRSQGYSFFNDAEETKTGIKDYADSSCLKTSGIKSQDCHSRTSLQSSHLWEFVRDLLLSPEENCGILEWEDREQGIFRVVKSEALAKMWGQRKKNDRMTYEKLSRALRYYYKTGILERVDRRLVYKFGKNAHGWQEEKL | soluble |
| MGSDKIHHHHHHMLNMDLSQRVVINTADLEWQNSPAAGVLRKRLAREEAERGHATSIVKYQAGAKFNSHPHPLGEEILVLDGVFSDETGDYPAGTYLRNPEGFVHAPFSVQGCTLLVKLHQFQTTDSQQVAINTNETQWLPGHGQLQVMPLHQHGTESTALVKWPAGTHFQPHRHFGGEEIYVISGVFIDELGRYPAGTWIRSPHLSQHNPYVEQDTVILVKVGHL | not soluble |
| MSSAKLFTPLKVGAITATNRVFMAPLTRLRSIEPGDIPTPLMAEYYRQRASAGLIISEATQISAQAKGYAGAPGLHSDEQIAAWKKITQGVHAQGGHMAVQLWHTGRISHASLQPGGQAPVAPSAINAGTRTSLRDENGQAIRVETSTPRALDTHEIPGIVNDFRQAIANAREAGFDLVELHSAHGYLLHQFLSPSSNHRTDRYGGGVENRARLVLEVVDAGIKEWGADRIGIRLSPVGTFQNVDNGPNEEADALYLIEALGKRGIAYLHMSEPDWAGGEPYSDAFREKVRARFHGPIIGAGAYTPEKAEDLIEKGLIDAVAFGRDYIANPDLVARLQRKAELNPQRPESFYGGGAEGYTDYPTL | not soluble |
| MESESIVYGCIRDWPGDSMERRMRRAANRRVLDSLPGGEAWPFLGREMFSRCEQSGAGLYQTQIIHFGASYQAIEYEWSLWVEQFEALLRRLYWASAVVHLETEVNGSHTFRWESERGFHTPQESDLQVRCAWEREGGRR | not soluble |
| SAAAALRDQLTALLSSMFSQGLVDEQFQQLQMLQDEGGTPGFVSEVVTLFCDDADRIINEIATLLEQPVVNFDKVDAYVHQLKGSSASVGAQKVKFTCMQFRQFCQDKSRDGCLMALAVVRNDFYDLRNKFQTMLQLEQQIQAYDPKQQ | soluble |
| MSLGTIIIVDDNKGVLTAVQLLLKNHFSKVITLSSPVSLSTVLREENPEVVLLDMNFTSGINNGNEGLFWLHEIKRQYRDLPVVLFTAYADIDLAVRGIKEGASDFVVKPWDNQKLLETLLNAASQAKDGKKKNRKKESSPVSAMYWGESSAMQQLRTLIEKVATTNANILITGENGTGKEMLAREIHALSPRSAESMISVDMGAITESLFESELFGHVKGSFTDAHADRTGKFEAADRSSLFLDEIGNLPFHLQAKLLTAIQQRSIVRVGSNQSIPVDIRLICATNRNLQEMVDKGLFREDLLYRINTIHVEIPPLRKRKEDIVPLAERFIARFCKQYDKASISLSPAACEKLTAHAWYGNIRELEHSIEKAVIISDGETIPAEMFQLVQKTENPETETSTLEDMEKAMIRKALDKCGGNLSAVAAQLGITRQTLYNKMKKFGLEGHHHHHH | soluble |
| GPGSMPTLAVAKDYICRLIGKSYTDEEFSDLCFQFGLELDDITSEKEMFMREQGKSAKANVAPAEAPAHLSEEKLYKIDTPANRHDLLTAEGMACALRVFMGTMPLPNYRVLNRASPLYRMSVEKSVKNVRDYVVCAVLRNIHFNERSYNSFIDYQERLHAGLARRRTLASVGTHDLDKVNTTDFIFACRPRETVRFVPLRQTRELNCAGDGLAQYYAEDRHIGKYVPLISSFPTYPVVYDGTGQNVLSLPPIINSHYSAISVDTRNIFIECTAPDHYKAQVLVNQLVCAFSVYCEDPFTVEAVQVNYEEPTPDGTRSLVTPTMETKEMTMNIERLNSIIGIKMKSGAECAQLLKMMMYTIKETTESEVTVTVPPMRTDVIGVADVMEDVAIAYGYDNITYVECKTHGPVTQTPLSKVAQLLRTEMACAGYTELLTLSLCSRADAFESLGRVDNDVAAHIANPQTMEFQVCRPSLLPGILKTLATNKSKPLPQRFFECADVVLLDNERNFPPVLELKTDYASCGARNQRHLAAAHCNGSSSGFESIHGLTELALLKLGVPSKAAIADDYEGDYYTLEKGEDGAFFPGRAMDIILHRAGQAVRIGHLGVIHPNTLKAYDIPSPCSYMELNIQFLCVPL | not soluble |
| MGSDKIHHHHHHMKLSFEVLEALDAIDRAGTFAEAAVLIHRVPSALSYLVQKAESDLGVILFDRSGRRAQLTEAGRLLVEDGRRLLQAGRELESKVRGVHAGWEAELRLCLDEILPLPSLWPHVRAFYDMELTTRLRLSTEVLGGVWDALVTGRADIAIGAAGEPPHAPNIAARPIGLLRHVFVVAPHHPLAAVEQPLDSDTISSHRGVIISDTSRALEPRSVAIHDGQPVIIVPTLAAKLDLLCEGMAVGMLPAPVVEEAIRQGKLVERRVIGVRDHTTCYLGWREDKTGRALKWWINRLDQIDLISTLFSTRGVAA | not soluble |
| MGSDKIHHHHHHMHYEHSRKGNHMIKINHLTITQNKDLRDLVSDLTMTIQDGEKVAIIGEEGNGKSTLLKILMGEALSDFTIKGNIQSDYQSLAYIPQKVPEDLKKKTLHDYFFLDSIDLDYSILYRLAEELHFDSNRFASDQEIGNLSGGEALKIQLIHELAKPFEILFLDEPSNDLDLETVDWLKGQIQKTRQTVIFISHDEDFLSETADTIVHLRLVKHRKEAETLVEHLDYDSYSEQRKANFAKQSQQAANNQRAYDKTMEKHRRVKQNVETALRATKDSTAGRLLAKKMKTVLSQEKRYEKAAQSMTQKPLEEEQIQLFFSDIQPLPASKVLVQLEKENLSIDDRVLVQKLQLTVRGQEKIGIIGPNGVGKSTLLAKLQRLLNDKREISLGFMPQDYHKKLQLDLSPIAYLSKTGEKEELQKIQSHLASLNFSYPEMQHQIRSLSGGQQGKLLLLDLVLRKPNFLLLDEPTRNFSPTSQPQIRKLFATYPGGLITVSHDRRFLKEVCSIIYRMTEHGLKLVNLEDL | not soluble |
| MGSDKIHHHHHHMDTLNQIDISIIIPIYNVEKYLTVCIDSLKNQGGLRMEIILVNDGSTDLSGEIADEYAKKEERIKVIHQENGGASAARNVGLDIATEEYIAFLDSDDWIKDESLSLLYDEAVKHHADVVMGNMWLCHQDGSMDKPFKCISNGSIKELLSGKESFIELVKTCFYLPMPFKYIYNRKYLHKIQARFEEGIMHEDELWCPIVLCQAERMVITNIEFYYYRQNEESVMHTTSLARRLKSLFQVTEGLIKFSDQFVSSKTSVDLRSWWYVNILRLYSKAFTLLPNIKDSSYIVHKHYLDRFWRDCGQMIPESIQRCRNYYYKAEAGLKEYTDWRVSDWVAGVDCQIKAGKKVMLVFNTINGEDLQLKIEDVPVDWVITTDRKYFQQATIVVFHLPTLHYELENDQDKLEGQTWVSWHLESEKDDPGINDPEISELFDLLISDPQDSEGEQHPLLRLCRNYVNNG | not soluble |
| HHHSSGLTPRGSQMKKIAFGCDHVGFILKHEIVAHLVERGVEVIDKGTWSSERTDYPHYASQVALAVAGGEVDGGILICGTGVGISIAANKFAGIRAVVCSEPYSAQLSRQHNDTNVLAFGSRVVGLELAKMIVDAWLGAQYEGGRHQQRVEAITAIEQRRN | soluble |
| MGSDKIHHHHHHMIWNIDYFCNLRCKSCNAWQGKIFFPEDQIDKHLQEMKNNGIKIVSVTGGEPTLNKNVVDIIRKLKENHFFTHIATNGTNPYVLRKLYPYLDAVTISLDSNIPEEHNAYRGLKIFDTVVSNIKEAKSKVKIVTANMLVTNFNYFKVGEIADFANNELGVPLSMCFPEQDAYYFQDFQVTNDMIRQAFSYAYENYHKHVFGNMRSYYKEAVDFIDGKGSRACKAGQEIFYTDYRGKVHPCFEHVEVVLNKKPTWDIYDNKCHKCFTECFLEPSIDHTFEAASLIGKIWWFNHVKRRDIKYIETKRPKQVPS | not soluble |
| MTMKEVEITAESLAKLTPAKQPNDTTTRVNSLSYGLKGDHMIMSTDDDSMFLYDMNTGLRSRSVNSKKYGCSHVKFASDSMCALHGSTKVDNTIRYLSLTDNKYIRYFQGHDKLVTGINVSPMDDMFLSVAEDKTIRLWDLKTHNCIGLMNLSATPIATFDPEGLLFAAGLDNNIIKLYDLRSFDKGPFSSFGPLENEDNVEWTAMRFSPCGKYIMICTNSSQLLLVDAFTGLIKFTLEEHQNAQKIPLMASFTPESSHIMVGSSDGYIYFYDVETGEIALKTLAPNNQTCHIAEFSPQHFVAATADTKLTLWCASDELKAQAQQS | not soluble |
| MRNFTRTLEPEGITEMPQEGLRFVVQHHLARRDHYDLRLEWDGAMLSWAVPKGPSYNTWDKRLAVQVEDHPLEYRHFEGTIPKGEYGGGVVMLWDEGFWEPYVDVDGGLHEGMLKFVLKGRRLKGRWALVRMKGKAGDKKDNWLLLKEKDDYVQTADGISQFTTSLEHHHHHH | soluble |
| TAPIAITCFTRGLDIRKEKADVLCPGGCPLEEFSVYGNIVYASVSSICGAAVHRGVISNSGGPVRVYSLPGRENYSSVDANGIQSQMLSRWSASFTVTLE | soluble |
| MGNWAEITDEISKIYQDNQYKIRQINDVDAVSDKRREALQALFEHTGRNVIVYYSAWLENGRRFSGQSTDFSVNDTDKNSFMTALHKLDQSKGLDLILHTPGGDVAATESLVDYIHALFGQDFRVIVPQLAMSAGTMIALSSKEIVMGKHSSLGPIDPQFNGLPAHGLLEEFEQAKKEVSENPQTAHIWQVILNKYNPTMLGEAKKAIQWSNSMVKQWLEKGMFLDEPDKEEKATRAIKELADHSVTLAHNRHISVSKALELGLNIKELESDPKLQDLVLTLHHLSVIAAQRGPLIKFVVNHDNRGTFLQGHEN | soluble |
| MKDLIIIGAGQAGLTMGYYLKQEGYNFLLLEAGKRVGDSWRNRYDSLQLFTPRSYSSLPGMALIGEKNEFPYKDEIATYLEEYARHFQLPVQLQTEVLKIKKEKEIFELHTPTEILQTKKVIIASGAFQQPFIPSVSANLSSHIFQIHSSQYKSPSQIPKGKVLVVGGGNSGMQIAVELAKTHEVTVSISHPLTFLPLQLFGKSIFNLLEKVGLLYAEINTKRGRWFQKRKDPIFGFEGKKLIRNGAIKLQEKVVSASRNNIMFQNGDTYSAESIIWSTGFVQNYNWIEIEQAVNEKGFPNHIKGISPVKGLYYIGLPLEHHHHHH | not soluble |
| MKTFGLLGGLAYPSTAEYYLKINRQVHATLGKHHSAPLWIHSFDFEPIAQAQASGSWTILEEKLLQAALELERLGCQGLAIASNTMHLLAPALEGALSIPLVHIADSVGEESSLKGYKKLALLGTLFTMEKDFYASRLQERFDLEVITPAKEERNLVHECIYRELVNNIFTEDSRRDFIQIIHGLKERGAEAVILGCTEIPLLLEGASSPLPLLDTMELHVGSIVQSILEI | not soluble |
| MLSKFVVVEVSNSNNTMTLVEYLVTHGFDKFAVVTDLVDHPSFKYKDGSSSPESPSTTASTAAQHTPPRTAVSTPTSINTPVPPHQNKQRHSIDKIAANLSTKKVSPSSIEKQLQRTSHNPLHQLSTPHALSQLQKLLEEQHKINQMNIQKKEQERQQAEIQRILLQQANAAQINHSFGLERLTPEYDDNHHSETISKASSEDLKTEPDSTDFGLGTSDDQVRASMLHLLHPVFAPAFGMLDAENIFGAASKPTTPASKRRNTDSNGAPSKKHRWLPVNELEESRSSRGKNCGRVHCKATYKCALCGKPTTLNSTGSRWNLLRHVIMIHSDCKPYKCWDCDFTGIKSNVISHARQCRHNAEDAHDITTDEMRAEWNLRLHECFPDYVRAKERGWQPEEVTVKKEEVEESPTLVKQELTLVKQEPTFAEQLEPMAQPLV | soluble |
| DDAYVERRVPQEMLGGHSQGDELPIHFSRSDAFERLPQPEPIRRRLVRVGSSPVHEERMVHQQIGDLCVGDTVAHARFGIGIIESLEGEGDNAKAEVSFQQVGRKRLLLRFAKLSKVEKDSI | not soluble |
